Experiment [1] addresses T1, Smc4 V721C, R1417C (SMC-kleisin ring circularization in vitro) (S. cerevisiae, UniProt Q12267 1-1418, V721C | R1417C).
T1 sequence: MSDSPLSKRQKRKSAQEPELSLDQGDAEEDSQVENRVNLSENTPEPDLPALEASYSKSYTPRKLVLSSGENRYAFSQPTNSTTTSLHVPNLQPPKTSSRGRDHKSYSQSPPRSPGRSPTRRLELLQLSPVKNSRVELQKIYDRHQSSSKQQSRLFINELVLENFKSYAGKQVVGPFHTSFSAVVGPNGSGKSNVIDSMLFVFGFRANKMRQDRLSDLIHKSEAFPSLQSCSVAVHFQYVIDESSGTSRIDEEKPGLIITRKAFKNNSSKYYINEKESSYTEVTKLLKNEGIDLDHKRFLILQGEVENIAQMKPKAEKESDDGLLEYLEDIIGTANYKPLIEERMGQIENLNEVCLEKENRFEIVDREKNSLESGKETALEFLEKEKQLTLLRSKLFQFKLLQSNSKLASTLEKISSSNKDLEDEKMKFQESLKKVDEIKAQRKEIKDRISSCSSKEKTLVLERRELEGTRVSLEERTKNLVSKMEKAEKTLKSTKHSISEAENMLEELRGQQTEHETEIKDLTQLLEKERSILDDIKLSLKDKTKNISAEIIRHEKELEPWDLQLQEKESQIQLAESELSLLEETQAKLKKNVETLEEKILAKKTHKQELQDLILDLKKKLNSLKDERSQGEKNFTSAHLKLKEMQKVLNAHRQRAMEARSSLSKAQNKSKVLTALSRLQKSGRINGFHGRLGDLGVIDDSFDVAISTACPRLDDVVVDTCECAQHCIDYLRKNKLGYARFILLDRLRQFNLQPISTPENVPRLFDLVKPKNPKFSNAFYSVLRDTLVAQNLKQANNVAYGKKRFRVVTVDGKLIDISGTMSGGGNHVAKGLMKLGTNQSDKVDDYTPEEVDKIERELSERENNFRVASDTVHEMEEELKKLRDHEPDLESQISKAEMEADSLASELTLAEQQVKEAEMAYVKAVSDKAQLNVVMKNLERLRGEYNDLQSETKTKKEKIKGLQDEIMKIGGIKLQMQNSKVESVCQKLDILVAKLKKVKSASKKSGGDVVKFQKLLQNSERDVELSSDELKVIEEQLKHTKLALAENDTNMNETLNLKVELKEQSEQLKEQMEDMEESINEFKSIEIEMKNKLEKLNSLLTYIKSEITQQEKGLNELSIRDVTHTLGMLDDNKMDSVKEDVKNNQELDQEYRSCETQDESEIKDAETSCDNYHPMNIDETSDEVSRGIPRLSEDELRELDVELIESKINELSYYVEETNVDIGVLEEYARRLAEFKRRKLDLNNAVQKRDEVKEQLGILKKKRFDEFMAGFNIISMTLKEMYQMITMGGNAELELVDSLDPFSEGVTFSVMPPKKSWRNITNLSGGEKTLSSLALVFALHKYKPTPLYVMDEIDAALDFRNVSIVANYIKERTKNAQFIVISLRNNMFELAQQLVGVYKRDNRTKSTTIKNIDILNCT
Description: cross-linking.

Experiment [2] addresses T2, Ycs4, HEAT-repeat subunit I of S. cerevisiae condensin (S. cerevisiae, UniProt Q06156 1-1176).
T2 sequence: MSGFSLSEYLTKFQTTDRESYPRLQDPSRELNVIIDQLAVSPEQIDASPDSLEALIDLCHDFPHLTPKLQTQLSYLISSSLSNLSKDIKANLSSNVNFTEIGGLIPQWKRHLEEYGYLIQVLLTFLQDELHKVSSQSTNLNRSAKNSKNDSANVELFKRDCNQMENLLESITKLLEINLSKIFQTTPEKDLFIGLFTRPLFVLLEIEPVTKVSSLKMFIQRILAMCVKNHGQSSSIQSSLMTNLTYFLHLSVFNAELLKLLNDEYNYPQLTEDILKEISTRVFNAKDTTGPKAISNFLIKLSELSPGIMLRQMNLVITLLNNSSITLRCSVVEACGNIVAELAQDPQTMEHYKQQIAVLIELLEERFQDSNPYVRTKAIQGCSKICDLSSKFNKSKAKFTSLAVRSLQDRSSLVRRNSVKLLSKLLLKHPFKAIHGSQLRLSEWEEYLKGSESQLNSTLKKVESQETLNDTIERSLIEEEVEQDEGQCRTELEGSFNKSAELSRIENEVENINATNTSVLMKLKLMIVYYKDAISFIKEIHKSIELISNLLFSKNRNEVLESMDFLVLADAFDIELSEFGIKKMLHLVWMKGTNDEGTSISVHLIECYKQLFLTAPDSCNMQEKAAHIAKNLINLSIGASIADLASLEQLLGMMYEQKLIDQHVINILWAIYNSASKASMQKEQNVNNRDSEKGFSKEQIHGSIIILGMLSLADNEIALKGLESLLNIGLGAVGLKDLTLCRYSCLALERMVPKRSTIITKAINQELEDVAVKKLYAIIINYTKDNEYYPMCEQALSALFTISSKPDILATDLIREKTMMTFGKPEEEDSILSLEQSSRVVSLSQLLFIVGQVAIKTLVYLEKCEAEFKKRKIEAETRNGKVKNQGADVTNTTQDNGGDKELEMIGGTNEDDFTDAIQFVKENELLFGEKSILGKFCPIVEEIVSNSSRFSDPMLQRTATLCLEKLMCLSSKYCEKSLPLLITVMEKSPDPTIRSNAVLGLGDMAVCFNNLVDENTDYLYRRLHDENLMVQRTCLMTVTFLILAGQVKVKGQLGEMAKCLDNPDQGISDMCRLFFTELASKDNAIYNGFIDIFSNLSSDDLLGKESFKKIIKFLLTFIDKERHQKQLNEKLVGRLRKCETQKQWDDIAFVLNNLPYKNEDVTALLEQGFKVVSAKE
In words: cryo-EM structure.

B1: Smc2 K639C, the Smc2 part of the Smc2–TEV–Brn1 fusion (SMC-kleisin ring circularization in vitro) (natural protein, S. cerevisiae)
chain: MKVEELIIDGFKSYATRTVITDWDPQFNAITGLNGSGKSNILDAICFVLGIASMSTVRASSLQDLIYKRGQAGVTKASVTIVFDNTDKSNSPIGFTNSPQISVTRQVVLGGTSKYLINGHRAPQQSVLQLFQSVQLNINNPNFLIMQGKITKVLNMKPSEILSLIEEAAGTKMFEDRREKAERTMSKKETKLQENRTLLTEEIEPKLEKLRNEKRMFLEFQSTQTDLEKTERIVVSYEYYNIKHKHTSIRETLENGETRMKMLNEFVKKTSEEIDSLNEDVEEIKLQKEKELHKEGTISKLENKENGLLNEISRLKTSLSIKVENLNDTTEKSKALESEIASSSAKLIEKKSAYANTEKDYKMVQEQLSKQRDLYKRKEELVSTLTTGISSTGAADGGYNAQLAKAKTELNEVSLAIKKSSMKMELLKKELLTIEPKLKEATKDNELNVKHVKQCQETCDKLRARLVEYGFDPSRIKDLKQREDKLKSHYYQTCKNSEYLKRRVTNLEFNYTKPYPNFEASFVHGVVGQLFQIDNDNIRYATALQTCAGGRLFNVVVQDSQTATQLLERGRLRKRVTIIPLDKIYTRPISSQVLDLAKKIAPGKVELAINLIRFDESITKAMEFIFGNSLICEDPETACKITFHPKIRARSITLQGDVYDPEGTLSGGSRNTSESLLVDIQKYNQIQKQIETIQADLNHVTEELQTQYATSQKTKTIQSDLNLSLHKLDLAKRNLDANPSSQIIARNEEILRDIGECENEIKTKQMSLKKCQEEVSTIEKDMKEYDSDKGSKLNELKKELKLLAKELEEQESESERKYDLFQNLELETEQLSSELDSNKTLLHNHLKSIESLKLENSDLEGKIRGVEDDLVTVQTELNEEKKRLMDIDDELNELETLIKKKQDEKKSSELELQKLVHDLNKYKSNTNNMEKIIEDLRQKHEFLEDFDLVRNIVKQNEGIDLDTYRERSKQLNEKFQELRKKVNPNIMNMIENVEKKEAALKTMIKTIEKDKMKIQETISKLNEYKRETLVKTWEKVTLDFGNIFADLLPNSFAKLVPCEGKDVTQGLEVKVKLGNIWKESLIELSGGQRSLIALSLIMALLQFRPAPMYILDEVDAALDLSHTQNIGHLIKTRFKGSQFIVVSLKEGMFANANRVFRTRFQDGTSVVSIM
As for B1, the binding result in experiment [1] is listed as “binds”.

B2: Smc2 E1113Q (Walker B mutant, EQ) of the S. cerevisiae condensin holo complex (natural protein)
chain: MKVEELIIDGFKSYATRTVITDWDPQFNAITGLNGSGKSNILDAICFVLGIASMSTVRASSLQDLIYKRGQAGVTKASVTIVFDNTDKSNSPIGFTNSPQISVTRQVVLGGTSKYLINGHRAPQQSVLQLFQSVQLNINNPNFLIMQGKITKVLNMKPSEILSLIEEAAGTKMFEDRREKAERTMSKKETKLQENRTLLTEEIEPKLEKLRNEKRMFLEFQSTQTDLEKTERIVVSYEYYNIKHKHTSIRETLENGETRMKMLNEFVKKTSEEIDSLNEDVEEIKLQKEKELHKEGTISKLENKENGLLNEISRLKTSLSIKVENLNDTTEKSKALESEIASSSAKLIEKKSAYANTEKDYKMVQEQLSKQRDLYKRKEELVSTLTTGISSTGAADGGYNAQLAKAKTELNEVSLAIKKSSMKMELLKKELLTIEPKLKEATKDNELNVKHVKQCQETCDKLRARLVEYGFDPSRIKDLKQREDKLKSHYYQTCKNSEYLKRRVTNLEFNYTKPYPNFEASFVHGVVGQLFQIDNDNIRYATALQTCAGGRLFNVVVQDSQTATQLLERGRLRKRVTIIPLDKIYTRPISSQVLDLAKKIAPGKVELAINLIRFDESITKAMEFIFGNSLICEDPETAKKITFHPKIRARSITLQGDVYDPEGTLSGGSRNTSESLLVDIQKYNQIQKQIETIQADLNHVTEELQTQYATSQKTKTIQSDLNLSLHKLDLAKRNLDANPSSQIIARNEEILRDIGECENEIKTKQMSLKKCQEEVSTIEKDMKEYDSDKGSKLNELKKELKLLAKELEEQESESERKYDLFQNLELETEQLSSELDSNKTLLHNHLKSIESLKLENSDLEGKIRGVEDDLVTVQTELNEEKKRLMDIDDELNELETLIKKKQDEKKSSELELQKLVHDLNKYKSNTNNMEKIIEDLRQKHEFLEDFDLVRNIVKQNEGIDLDTYRERSKQLNEKFQELRKKVNPNIMNMIENVEKKEAALKTMIKTIEKDKMKIQETISKLNEYKRETLVKTWEKVTLDFGNIFADLLPNSFAKLVPCEGKDVTQGLEVKVKLGNIWKESLIELSGGQRSLIALSLIMALLQFRPAPMYILDQVDAALDLSHTQNIGHLIKTRFKGSQFIVVSLKEGMFANANRVFRTRFQDGTSVVSIM
Consider B2, for which, in experiment [2], the binding result was “binds”.

B3: Brn1 K709C, the Brn1 part of the Smc2–TEV–Brn1 fusion (SMC-kleisin ring circularization in vitro) (natural protein, S. cerevisiae)
chain: MTTQLRYENNDDDERVEYNLFTNRSTMMANFEEWIKMATDNKINSRNSWNFALIDYFYDLDVLKDGENNINFQKASATLDGCIKIYSSRVDSVTTETGKLLSGLAQRKTNGASNGDDSNGGNGEGLGGDSDEANIEIDPLTGMPISNDPDVNNTRRRVYNRVLETTLVEFETIKMKELDQELIIDPLFKKALVDFDEGGAKSLLLNTLNIDNTARVIFDASIKDTQNVGQGKLQRKEEELIERDSLVDDENEPSQSLISTRNDSTVNDSVISAPSMEDEILSLGMDFIKFDQIAVCEISGSIEQLRNVVEDINQAKDFIENVNNRFDNFLTEEELQAAVPDNAEDDSDGFDMGMQQELCYPDENHDNTSHDEQDDDNVNSTTGSIFEKDLMAYFDENLNRNWRGREHWKVRNFKKANLVNKESDLLEETRTTIGDTTDKNTTDDKSMDTKKKHKQKKVLEIDFFKTDDSFEDKVFASKGRTKIDMPIKNRKNDTHYLLPDDFHFSTDRITRLFIKPGQKMSLFSHRKHTRGDVSSGLFEKSTVSANHSNNDIPTIADEHFWADNYERKEQEEKEKEQSKEVGDVVGGALDNPFEDDMDGVDFNQAFEGTDDNEEASVKLDLQDDEDHKFPIRENKVTYSRVSKKVDVRRLKKNVWRSINNLIQEHDSRKNREQSSNDSETHTEDESTKELKFSDIIQGISKMYSDDTLCDISTSFCFICLLHLANEHGLQITHTENYNDLIVNYEDLATTQAAS
In the case of B3, the binding result in experiment [1] is “binds”.
